From US20230313190

Biological target: T1, Flag-Atxn1-82Q-HA, P54253
T1 chain: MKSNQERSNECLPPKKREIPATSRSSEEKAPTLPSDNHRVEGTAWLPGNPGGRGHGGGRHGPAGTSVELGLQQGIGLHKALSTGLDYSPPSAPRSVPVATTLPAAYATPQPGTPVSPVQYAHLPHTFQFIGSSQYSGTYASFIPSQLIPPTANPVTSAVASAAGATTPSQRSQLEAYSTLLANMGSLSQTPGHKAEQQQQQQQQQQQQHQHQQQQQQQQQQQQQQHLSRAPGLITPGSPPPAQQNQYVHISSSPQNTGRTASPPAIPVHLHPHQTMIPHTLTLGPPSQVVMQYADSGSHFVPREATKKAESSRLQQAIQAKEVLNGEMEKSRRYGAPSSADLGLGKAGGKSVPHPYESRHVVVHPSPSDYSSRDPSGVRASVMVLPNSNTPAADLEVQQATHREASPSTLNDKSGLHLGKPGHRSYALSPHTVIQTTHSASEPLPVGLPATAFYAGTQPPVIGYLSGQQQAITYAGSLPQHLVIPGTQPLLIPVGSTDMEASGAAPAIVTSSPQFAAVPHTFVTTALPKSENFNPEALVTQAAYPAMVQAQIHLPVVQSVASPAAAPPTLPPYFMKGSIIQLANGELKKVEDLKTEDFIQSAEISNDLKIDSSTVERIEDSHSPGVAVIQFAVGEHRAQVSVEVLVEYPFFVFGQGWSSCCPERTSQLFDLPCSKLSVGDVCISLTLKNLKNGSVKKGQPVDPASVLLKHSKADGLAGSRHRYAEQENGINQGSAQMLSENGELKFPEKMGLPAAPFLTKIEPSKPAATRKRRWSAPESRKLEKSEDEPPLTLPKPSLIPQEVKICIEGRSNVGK

B1: GST-rRNF4 (protein)
chain: MSTRNPQRKRRGGAVNSRQTQKRTRETTSTPEISLEAEPIELVETVGDEIVDLTCESLEPVVVDLTHNDSVVIVEERRRPRRNGRRLRQDHADSCVVSSDDEELSKDKDVYVTTHTPRSTKDEGTTGLRPSGTVSCPICMDGYSEIVQNGRLIVSTECGHVFCSQCLRDSLKNANTCPTCRKKINHKRYHPIYI
- in vitro ubiquitination assay: the unmodified Atxn1 82Q protein was not ubiquitinated
